Assay results: US20260216242A1 (ALMAC DISCOVERY, published 2026)

B1: D10 A06-hFc (S239/442C T366Y/Y407T), [G4S]1 linker, MC-vc-PAB-MMAE conjugate, #676 (Fc fusion, DAR 4)
chain 1: QVQLVESGGGLVQPGGSLRLSCAASGSIFSVNTMGWYRQAPGKQRDLVAVATSGGTIHYADSVKGRFTISRDNAKNTVYLQMNSLKPEDTAVYYCNLVVPYGMIAGDHDYWGQGTKVTVSSGGGGSEPKSSDKTHTCPPCPAPELLGGPCVFLFPPKPKDTLMISRTPEVTCVVVDVSHEDPEVKFNWYVDGVEVHNAKTKPREEQYNSTYRVVSVLTVLHQDWLNGKEYKCKVSNKALPAPIEKTISKAKGQPREPQVYTLPPSRDELTKNQVSLYCLVKGFYPSDIAVEWESNGQPENNYKTTPPVLDSDGSFFLYSKLTVDKSRWQQGNVFSCSVMHEALHNHYTQKSLCLSPGK
chain 2: QVHLVESGGGLVQAGGSLRLSCAASGRTFLSMGWFRQAPGKEREFVAAISWTGGSTGYADSVKGRFTISRESDKETMYLQMNSLKPEDTAVYYCAARGDVYYGGDDATRYKYWGQGTQVTVSSGGGGSEPKSSDKTHTCPPCPAPELLGGPCVFLFPPKPKDTLMISRTPEVTCVVVDVSHEDPEVKFNWYVDGVEVHNAKTKPREEQYNSTYRVVSVLTVLHQDWLNGKEYKCKVSNKALPAPIEKTISKAKGQPREPQVYTLPPSRDELTKNQVSLTCLVKGFYPSDIAVEWESNGQPENNYKTTPPVLDSDGSFFLTSKLTVDKSRWQQGNVFSCSVMHEALHNHYTQKSLCLSPGK
modifications: MC-vc-PAB-MMAE on Cys of S239C and S442C (EU numbering)
notes: Biparatopic knob-into-hole VHH-hFc heterodimer, DAR 4; The assignment of T366Y to the first named VHH and Y407T to the second follows the order of the name; No paragraph spells out this pair; also called D10-A06-hFc-vcPAB-MMAE; D10-A06 hFc-vc-MMAE
B2: D10 E06-hFc (S239/442C T366Y/Y407T), [G4S]1 linker, MC-vc-PAB-MMAE conjugate, #677 (Fc fusion, DAR 4)
chain 1: B1 chain 1
chain 2: QVHLVESGGGLVQAGGSLRLSCAASRRSFSEYAMGWFRQAPGKEREFVAAIGWSGVIEYADSVKGRFTISRDNAKDTVYLQMNSLKPEDTAVYYCAAGLGIRVVSQTPAYWGQGTQVTVSSGGGGSEPKSSDKTHTCPPCPAPELLGGPCVFLFPPKPKDTLMISRTPEVTCVVVDVSHEDPEVKFNWYVDGVEVHNAKTKPREEQYNSTYRVVSVLTVLHQDWLNGKEYKCKVSNKALPAPIEKTISKAKGQPREPQVYTLPPSRDELTKNQVSLTCLVKGFYPSDIAVEWESNGQPENNYKTTPPVLDSDGSFFLTSKLTVDKSRWQQGNVFSCSVMHEALHNHYTQKSLCLSPGK
modifications: MC-vc-PAB-MMAE on Cys of S239C and S442C (EU numbering)
notes: Biparatopic knob-into-hole VHH-hFc heterodimer, DAR 4; also called D10-E06-hFc-vcPAB-MMAE; D10-E06 hFc-vc-MMAE
B3: D10 A06-hFc (S239/442C T366Y/Y407T), [G4S]3 linker, MC-vc-PAB-MMAE conjugate, #633 (Fc fusion, DAR 4)
chain 1: QVQLVESGGGLVQPGGSLRLSCAASGSIFSVNTMGWYRQAPGKQRDLVAVATSGGTIHYADSVKGRFTISRDNAKNTVYLQMNSLKPEDTAVYYCNLVVPYGMIAGDHDYWGQGTKVTVSSGGGGSGGGGSGGGGSEPKSSDKTHTCPPCPAPELLGGPCVFLFPPKPKDTLMISRTPEVTCVVVDVSHEDPEVKFNWYVDGVEVHNAKTKPREEQYNSTYRVVSVLTVLHQDWLNGKEYKCKVSNKALPAPIEKTISKAKGQPREPQVYTLPPSRDELTKNQVSLYCLVKGFYPSDIAVEWESNGQPENNYKTTPPVLDSDGSFFLYSKLTVDKSRWQQGNVFSCSVMHEALHNHYTQKSLCLSPGK
chain 2: QVHLVESGGGLVQAGGSLRLSCAASGRTFLSMGWFRQAPGKEREFVAAISWTGGSTGYADSVKGRFTISRESDKETMYLQMNSLKPEDTAVYYCAARGDVYYGGDDATRYKYWGQGTQVTVSSGGGGSGGGGSGGGGSEPKSSDKTHTCPPCPAPELLGGPCVFLFPPKPKDTLMISRTPEVTCVVVDVSHEDPEVKFNWYVDGVEVHNAKTKPREEQYNSTYRVVSVLTVLHQDWLNGKEYKCKVSNKALPAPIEKTISKAKGQPREPQVYTLPPSRDELTKNQVSLTCLVKGFYPSDIAVEWESNGQPENNYKTTPPVLDSDGSFFLTSKLTVDKSRWQQGNVFSCSVMHEALHNHYTQKSLCLSPGK
modifications: MC-vc-PAB-MMAE on Cys of S239C and S442C (EU numbering)
notes: Biparatopic knob-into-hole VHH-hFc heterodimer, DAR 4; The assignment of T366Y to the first named VHH and Y407T to the second follows the order of the name; No paragraph spells out this pair; also called D10-A06 hFc-vcPAB-MMAE; D10-A06-hFc-vc-MMAE
B4: D10 F05-hFc (S239/442C T366Y/Y407T), [G4S]1 linker, MC-vc-PAB-MMAE conjugate, #679 (Fc fusion, DAR 4)
chain 1: B1 chain 1
chain 2: QVQLVESGGGLVQAGGSLRLSCAASGRAFGDYNIGWFRQAPGKEREFVARRTWDGSSTRYDDSVKGRFTVSIDNAKNTAYLQMNSLKTEDTAVYYCAAGRYSRVRGWEYDYWGQGTQVTVSSGGGGSEPKSSDKTHTCPPCPAPELLGGPCVFLFPPKPKDTLMISRTPEVTCVVVDVSHEDPEVKFNWYVDGVEVHNAKTKPREEQYNSTYRVVSVLTVLHQDWLNGKEYKCKVSNKALPAPIEKTISKAKGQPREPQVYTLPPSRDELTKNQVSLTCLVKGFYPSDIAVEWESNGQPENNYKTTPPVLDSDGSFFLTSKLTVDKSRWQQGNVFSCSVMHEALHNHYTQKSLCLSPGK
modifications: MC-vc-PAB-MMAE on Cys of S239C and S442C (EU numbering)
notes: Biparatopic knob-into-hole VHH-hFc heterodimer, DAR 4; also called D10-F05-hFc-vcPAB-MMAE; D10-F05 hFc-vc-MMAE

target: T1, human ALPP (alkaline phosphatase, placental type) expressed on the surface of CHO cells (human, UniProt P05187 23-506); assay: cell-based or functional assay
T1 sequence (P05187 23-506 limits assumed): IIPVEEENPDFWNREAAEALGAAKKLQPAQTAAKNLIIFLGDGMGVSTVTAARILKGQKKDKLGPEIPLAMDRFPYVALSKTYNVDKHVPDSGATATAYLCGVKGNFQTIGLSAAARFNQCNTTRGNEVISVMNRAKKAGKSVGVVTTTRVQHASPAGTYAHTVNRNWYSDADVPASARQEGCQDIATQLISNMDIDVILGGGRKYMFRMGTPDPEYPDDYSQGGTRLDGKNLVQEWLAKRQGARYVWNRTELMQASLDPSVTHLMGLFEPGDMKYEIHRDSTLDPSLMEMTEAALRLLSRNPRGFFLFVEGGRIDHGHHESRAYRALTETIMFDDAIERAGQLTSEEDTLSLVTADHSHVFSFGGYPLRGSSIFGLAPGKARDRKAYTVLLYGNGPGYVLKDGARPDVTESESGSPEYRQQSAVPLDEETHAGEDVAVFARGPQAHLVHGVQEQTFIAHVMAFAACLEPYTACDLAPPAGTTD

Binder | IC50 at 96 h, cell-killing of CHO-ALPP cells [nM]
B1 | 5
B2 | 3.3
B3 | 10.1

target: T2, human ALPPL2 (alkaline phosphatase, germ cell type) expressed on the surface of CHO cells (human, UniProt P10696 20-503); assay: cell-based or functional assay
T2 sequence (P10696 20-503): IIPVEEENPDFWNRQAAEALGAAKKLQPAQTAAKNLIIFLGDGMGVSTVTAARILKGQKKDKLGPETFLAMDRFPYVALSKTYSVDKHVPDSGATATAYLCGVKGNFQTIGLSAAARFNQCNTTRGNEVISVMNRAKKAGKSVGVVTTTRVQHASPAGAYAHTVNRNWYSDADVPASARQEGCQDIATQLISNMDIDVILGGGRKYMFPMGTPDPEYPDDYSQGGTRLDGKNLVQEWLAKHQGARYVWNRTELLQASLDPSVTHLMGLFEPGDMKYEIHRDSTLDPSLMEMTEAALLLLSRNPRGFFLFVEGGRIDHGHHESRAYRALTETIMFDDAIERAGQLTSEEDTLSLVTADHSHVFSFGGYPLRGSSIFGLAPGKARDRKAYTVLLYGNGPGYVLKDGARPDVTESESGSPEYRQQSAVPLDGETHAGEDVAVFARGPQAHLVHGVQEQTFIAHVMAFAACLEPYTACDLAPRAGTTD

Binder | IC50 at 96 h, cell-killing of CHO-ALPPL2 cells [nM]
B2 | 21.1
B4 | 16.1

target: T3, human ALPI (intestinal alkaline phosphatase) expressed on the surface of CHO cells (human, UniProt P09923 20-503); assay: cell-based or functional assay
T3 sequence (looked up): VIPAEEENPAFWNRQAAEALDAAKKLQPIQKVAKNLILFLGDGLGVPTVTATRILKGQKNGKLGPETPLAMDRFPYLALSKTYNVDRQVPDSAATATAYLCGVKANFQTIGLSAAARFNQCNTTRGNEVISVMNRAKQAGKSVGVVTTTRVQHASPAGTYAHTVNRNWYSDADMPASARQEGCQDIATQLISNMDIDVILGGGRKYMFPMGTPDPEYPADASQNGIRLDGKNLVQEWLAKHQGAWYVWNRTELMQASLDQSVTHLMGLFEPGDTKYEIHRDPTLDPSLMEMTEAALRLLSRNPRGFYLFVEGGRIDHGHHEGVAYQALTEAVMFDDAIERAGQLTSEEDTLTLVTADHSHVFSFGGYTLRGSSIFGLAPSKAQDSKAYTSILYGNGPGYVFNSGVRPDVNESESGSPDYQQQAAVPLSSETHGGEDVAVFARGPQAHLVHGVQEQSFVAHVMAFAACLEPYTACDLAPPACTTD

Binder | IC50 at 96 h, cell-killing of CHO-ALPI cells [nM]
B1 | > 1000
B2 | > 1000
B4 | > 1000
B3 | > 1000

target: T4, human ALPL (tissue non-specific alkaline phosphatase) expressed on the surface of CHO cells (human, UniProt P05186 18-501); assay: cell-based or functional assay
T4 sequence (looked up): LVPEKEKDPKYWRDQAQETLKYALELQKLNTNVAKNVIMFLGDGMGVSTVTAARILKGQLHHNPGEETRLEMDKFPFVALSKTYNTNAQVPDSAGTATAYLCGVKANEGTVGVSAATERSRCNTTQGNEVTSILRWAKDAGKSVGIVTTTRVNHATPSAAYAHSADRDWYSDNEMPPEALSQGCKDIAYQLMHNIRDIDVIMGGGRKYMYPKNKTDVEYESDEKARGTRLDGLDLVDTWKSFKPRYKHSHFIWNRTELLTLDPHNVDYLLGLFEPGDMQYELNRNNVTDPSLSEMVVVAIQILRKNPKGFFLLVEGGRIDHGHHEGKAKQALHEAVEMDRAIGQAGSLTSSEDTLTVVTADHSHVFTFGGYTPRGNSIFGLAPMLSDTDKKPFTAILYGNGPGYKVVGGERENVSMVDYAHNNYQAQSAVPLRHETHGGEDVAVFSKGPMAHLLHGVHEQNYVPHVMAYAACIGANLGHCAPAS

Binder | IC50 at 96 h, cell-killing of CHO-ALPL cells [nM]
B1 | > 1000
B2 | > 1000
B4 | > 1000
B3 | > 1000

target: T3, human ALPI (intestinal alkaline …); assay: flow cytometry, CHO-ALPI cells

Binder | binding result
B2 | no binding (tested: 350 nM (highest concentration))
B4 | no binding (tested: 350 nM (highest concentration))

target: T4, human ALPL (tissue non-specific …); assay: flow cytometry, CHO-ALPL cells

Binder | binding result
B1 | no binding (tested: 350 nM (highest concentration))
B2 | no binding (tested: 350 nM (highest concentration))
B4 | no binding (tested: 350 nM (highest concentration))
B3 | no binding (tested: 350 nM (highest concentration))

target: T3, human ALPI (intestinal alkaline …); assay: flow cytometry on CHO-ALPI cells

Binder | MFI on CHO-ALPI cells at 350 nM as percent of MFI on CHO-ALPP cells (KDapp not-determinable) [%]
B1 | ≤ 1
B3 | ≤ 1

target: T1, human ALPP (alkaline phosphatase, …); assay: flow cytometry on CHO-ALPP cells, apparent KD (KDapp)
Description: (§1) Biparatopic VHH-hFc drug conjugates were assessed for human ALPP, ALPPL2, ALPI and ALPL cell-surface binding by flow cytometry. Binders were screened on CHO cells stably expressing human ALPP, ALPPL2, ALPI or ALPL.
(§2) Cell surface binding of test agents to hALPP isoforms was characterized in four CHO-ALPP isoform transfectant cell lines (CHO-ALPP, CHO-ALPPL2, CHO-ALPI and CHO-ALPL) and the resulting KDapp values determined. Adherent cells were detached from tissue culture flasks by incubating with 0.1% EDTA/PBS solution at 37° C. for […] or until cells detached easily. Cells were re-suspended in ice-cold PBS/2% FCS in 15 ml tubes and centrifuged at 1700 rpm for 5 mins at 4° C. Supernatant was removed and the cell pellet re-suspended in PBS/2% FCS. […] Cells were incubated with 100 μl of test agents at a range of concentrations, plus controls for 1 hr on ice. The sample plate was centrifuged at 1700 rpm for 5 mins at 4° C. The supernatant was removed, and a wash performed by re-suspending the cell pellets in 0.25 mL of ice-cold PBS/2% FCS using a multichannel pipette. Samples were again centrifuged at 1700 rpm for 5 min at 4° C. Supernatant was removed and two further washes performed as described. After the final wash and centrifugation step, excess liquid was removed by blotting the plate on tissue paper. Binding of VHH-hFc agents was determined by adding 100 μl of Fitc-anti-human Ab (ThermoFisher) and incubating for 30 mins on ice in the dark. Wash steps were performed as described previously. All cell pellets were finally re-suspended in 0.28 ml of ice-cold PBS/2% FCS and left on ice in the dark prior to analysis on a Merck-Millipore Guava EasyCyte HT or Thermo Fisher Attune N×T flow cytometer.

Binder | Kd [nM]
B1 | 14.4
B2 | 9.4
B4 | 6.6
B3 | 7.6

target: T2, human ALPPL2 (alkaline phosphatase, …); assay: flow cytometry on CHO-ALPPL2 cells, apparent KD (KDapp)
Description: as §1, §2

Binder | Kd [nM]
B1 | 5
B2 | 5.5
B4 | 5.2
B3 | 4.4
